# Data taken from PMC9150345, “Trimeric complexes of Antp-TBP with TFIIEβ or Exd modulate transcriptional activity” (Hereditas, 2022).
# T1: hTBPΔQ40, hTBP lacking the Poly-glutamine region (amino acids 50-102), fused to the N-terminal fragment of … (human, UniProt P20226 1-339, lacking the Poly-glutamine region (amino acids 50-102))
# T1 construct: made by site-directed mutagenesis; source: HEK293, transfected, in living cells
# T1 sequence (looked up): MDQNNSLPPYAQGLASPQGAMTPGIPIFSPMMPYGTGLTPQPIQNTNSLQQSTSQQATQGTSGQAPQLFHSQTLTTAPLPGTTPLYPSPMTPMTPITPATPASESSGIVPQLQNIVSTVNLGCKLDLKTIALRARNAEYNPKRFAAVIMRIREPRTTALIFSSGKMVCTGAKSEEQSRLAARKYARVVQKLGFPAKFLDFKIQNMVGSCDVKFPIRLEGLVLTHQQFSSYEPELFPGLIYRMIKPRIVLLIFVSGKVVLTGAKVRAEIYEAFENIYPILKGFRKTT
# B1: AntpΔN, Antp lacking the N-terminal region (amino acids 1-269), fused to the C-terminal fragment of Venus (domain or fragment)
# chain: not shown
# notes: Antennapedia (Antp) lacking the N-terminal region (amino acids 1-269); source: HEK293, transfected, in living cells
# B2: Antennapedia (Antp), fused to the C-terminal fragment of Venus (natural protein)
# chain: not shown
# notes: Antennapedia (Antp) Hox protein; also called VCAntp; Antp WT; source: HEK293, transfected, in living cells
# B3: AntpΔHD, Antp without the YPWM motif and homeodomain (amino acids 245-363), fused to the C-terminal fragment of Venus (natural protein, Drosophila, UniProt P02833 1-378, looked up)
# chain: MTMSTNNCESMTSYFTNSYMGADMHHGHYPGNGVTDLDAQQMHHYSQNANHQGNMPYPRFPPYDRMPYYNGQGMDQQQQHQVYSRPDSPSSQVGGVMPQAQTNGQLGVPQQQQQQQQQPSQNQQQQQAQQAPQQLQQQLPQVTQQVTHPQQQQQQPVVYASCKLQAAVGGLGMVPEGGSPPLVDQMSGHHMNAQMTLPHHMGHPQAQLGYTDVGVPDVTEVHQNHHNMGMYQQQSGVPPVGAPPSGGEGDEITPPNSPQ
# notes: Antennapedia (Antp) without the HD (amino acids 245-363); the text calls it the YPWM-HD deletion; source: HEK293, transfected, in living cells
# B4: AntpQ6, Antp with deletion of three glutamines (amino acids 150-152) and substitution of three glutamines to alanines (amino acids 153-155), fused to the … (natural protein)
# chain: not shown
# notes: Antennapedia (Antp) with deletion of three glutamines (150-152) and three glutamines changed to alanines (153-155); source: HEK293, transfected, in living cells
# B5: AntpΔPolyQ, Antp with deletion of PolyQ regions (amino acids 66-136), fused to the C-terminal fragment of Venus (natural protein)
# chain: not shown
# notes: Antennapedia (Antp) with deletion of PolyQ regions (amino acids 66-136); source: HEK293, transfected, in living cells
# B6: AntpQ9, Antp with deletion of the 9-polyQ stretch (amino acids 110-118), fused to the C-terminal fragment of Venus (natural protein)
# chain: not shown
# notes: Antennapedia (Antp) with deletion of the 9-polyQ stretch (amino acids 110-118); source: HEK293, transfected, in living cells
# B7: AntpQ5, Antp with the 5-polyQ stretch mutagenized to alanines (amino acids 123-127), fused to the C-terminal fragment of Venus (natural protein)
# chain: not shown
# notes: Antennapedia (Antp) in which the 5-polyQ stretch was mutagenized to alanines (amino acids 123-127); source: HEK293, transfected, in living cells
# Target: T1, hTBPΔQ40, hTBP lacking the …
# Assay: split reporter (BiFC, NanoBiT); BiFC in HEK293 cells co-transfected with VC- and VN- constructs and pCAG-mCherry; read 48 h after transfection; interaction percent = green cells per 100 red cells
# Settings: partners not purified
row,Binder,percent of transfected cells showing BiFC
1,B1,14%
2,B2,41%

# Target: T2, TATA-binding protein (hTBP), fused to the N-terminal fragment of Venus (human, UniProt P20226 1-339)
# T2 construct: also called VNTBP; source: HEK293, transfected, in living cells
# Assay: as above
# Settings: partners not purified
row,Binder,percent of transfected cells showing BiFC
1,B3,74%
2,B4,63%
3,B5,51%
4,B1,51%
5,B6,57%
6,B2,77%
7,B7,74%
